Results taken from patent US20090136433A1.

Biological target: hair (human) (human)
Assay: binding test on 5 mg human hair; bound His-tagged protein detected with anti-polyhistidine peroxidase conjugate and TMB; buffer control A405 nm = 0.05

- A405 nm (absorption at 405 nm) (absorption at 405 nm): 0.12
Substance: Comparison protein YaaD from B. subtilis with His tag (from UniProt P37527 1-294)
